In patent US20120134979A1, “METHODS AND COMPOSITIONS FOR THE TREATMENT OF SICKLE CELL DISEASE” (priority 2010, published 2012):

Tests used:
RBCs from SCD patients = test: Hypoxia-induced 2,3-DPG in erythrocytes purified from SCD patients; assay type: cell-based, human; settings: hypoxic conditions (2% oxygen)
Procedure: Isolation of total erythrocytes and treatment of human and mouse erythrocytes in vitro. Blood collected with heparin as an anti-coagulant was centrifuged at 240×g for 10 min at room temperature, followed by aspiration of plasma and white interface. Packed red blood cells (RBCs) were washed 3 times with culture media (F-10 Ham's with 1% penicillin/streptomycin, 10% fetal bovine serum (FBS), and re-suspended to 4% hematocrit (HCT). One ml of RBCs was added to each well of a 12-well plate. Normal RBCs purified from humans were treated with different concentrations of 5′-(N-ethyl-carboxamido) adenosine (NECA, an adenosine receptor agonist, Sigma-Aldrich, St. Louis, Mo.) ranging from 1-50 μM for different time points (from 1 to 18 hr) under normoxic conditions. Normal RBCs were treated with 10 μM NECA in the presence or absence of adenosine receptor antagonists, including theophylline, PSB36, SCH442416, MRS1754 and MRS3777 (Tocris Bioscience, St. Louis, Mo.) at 10 μM. In addition, normal RBCs were treated directly with the A2BR agonist (BAY 60-6583, Bayer HealthCare AG, Wuppertal, Germany) or the A2AR agonist (CGS21680) (Tocris). Similarly, the mouse RBCs were treated with or without NECA at 10 μM in the presence or absence of theophylline (10 μM). In addition, RBCs purified from 4 adenosine receptor deficient mice were treated with 10 μM NECA. After 18 hours, cells were collected and 2,3-DPG levels were measured as described below. RBCs were purified from SCD patients and treated with or without 10 μM NECA, 5 units/ml polyethylene glycol-adenosine deaminase (PEG-ADA) or 3 mmol/L glycolic acid (Sigma-Aldrich), 10 μM MRS1754 (A2BR antagonist) under ambient oxygen (normoxia) or different levels of hypoxic conditions (for 3 hours with shaking at 37° C. At the end of experiments, 2,3-DPG levels were measured and the percentage of sickled cells determined as described below.
(§1) 2,3-DPG analysis. 2,3-DPG concentration in RBCs was detected by a commercially available kit (Roche, Nutley, N.J., and as described in Ericson A, de Verdier C H. A modified method for the determination of 2,3-diphosphoglycerate in erythrocytes. Scandinavian journal of clinical and laboratory investigation. 1972; 29(1):84-90).

SCD Tg mice = test: Hypoxia/reoxygenation-induced acute sickle crisis in SCD Tg mice with PEG-ADA pretreatment; assay type: in vivo, mouse
Procedure: Adenosine Analysis. The adenosine concentration present in whole blood was measured by HPLC as previously described (Knudsen, T. B., et al. Effects of (R)-deoxycoformycin (pentostatin) on intrauterine nucleoside catabolism and embryo viability in the pregnant mouse. Teratology 45, 91-103, 1992) with modifications. In brief, 500 μl of 0.6 M cold perchloric acid was added to 500 μl blood on ice, mixed using a vertex mixer and subsequently subject to sonication for 10 seconds with output 6 (W-220F, Heat Systems-Ultrasonic, Inc.). The homogenate was centrifuged at 20,000 g for 10 min at […]. The supernatant (568 μl) was transferred to a new tube and neutralized with 40.9 μl 3 M KHCO3/3.6 N KOH. Phenol red (2 μl of 0.2 mg/ml) was added as indicator. The sample was acidified with 5.7 μl of 1.8 M ammonium dihydrogen phosphate (pH 5.1) and 13.2 μl phosphoric acid (30%). Finally, the sample was centrifuged at 20,000 g for 5 min and the supernatant was transferred to a new tube and stored at −20° C. Before HPLC assay, the sample was thawed on ice, then centrifuged at 20,000 g for 10 minutes. The supernatant was transferred to a new tube for HPLC analysis as described previously (Aldrich, et al. Adenosine deaminase-deficient mice: models for the study of lymphocyte development and adenosine signaling. Adv Exp Med. Biol. 2000; 486, 57-63; Blackburn, et al. Metabolic and immunologic consequences of limited adenosine deaminase expression in mice. The Journal of Biological Chemistry. 1996; 271(25):15203-15210). Plasma adenosine measurements were performed as with whole blood, except the sonication step was omitted. Adenosine content was normalized to volume.
Hypoxia/reoxygenation of SCD Tg mice. SCD Tg mice were subjected to two-hour hypoxic condition with 8% oxygen. After hypoxia, mice were returned to normoxic conditions for four hours Wallace, et al. NKT cells mediate pulmonary inflammation and dysfunction in murine sickle cell disease through production of IFN-gamma and CXCR3 chemokines. Blood. 2009; 114(3):667-676). At the end of the experiments, mice were sacrificed and blood collected for adenosine measurement, sickling and hemolytic analysis.
Morphological study of erythrocytes and quantification of reticulocytes by flow cytometry. Blood smears were stained using the WG16-500 ml kit (Sigma-Aldrich) for sickled cells and observed using 100× oil immersion objective of Olympus BX60 microscope. […] The percentages of sickled cells among the counted cells were calculated. Reticulocyte was labeled by Retic-COUNT Reagent (Becton Dickinson) and quantified by flow cytometry (Perumbeti, et al., A novel human gamma-globin gene vector for genetic correction of sickle cell anemia in a humanized sickle mouse model: critical determinants for successful correction. Blood. 2009; 114(6):1174-1185).
as §1
Hemolytic analysis. The hemoglobin, haptoglobin and total bilirubin in mouse plasma were quantified by ELISA kits following instructions provided by the vendor (BioAssay Systems, Hayword, Calif.).

[1] = SCD Tg mice, 2 h hypoxia/4 h reoxygenation, PEG-ADA pretreatment
[2] = SCD Tg mice, hypoxic/reoxygenation condition

B1: PEG-ADA: polyethylene glycol-modified adenosine deaminase, a drug used to lower adenosine concentrations in ADA-deficient humans (protein, UniProt P56658 2-363, looked up)
Adenosine deaminase: AQTPAFNKPKVELHVHLDGAIKPETILYYGRKRGIALPADTPEELQNIIGMDKPLSLPEFLAKFDYYMPAIAGCREAVKRIAYEFVEMKAKDGVVYVEVRYSPHLLANSKVEPIPWNQAEGDLTPDEVVSLVNQGLQEGERDFGVKVRSILCCMRHQPSWSSEVVELCKKYREQTVVAIDLAGDETIEGSSLFPGHVKAYAEAVKSGVHRTVHAGEVGSANVVKEAVDTLKTERLGHGYHTLEDATLYNRLRQENMHFEVCPWSSYLTGAWKPDTEHPVVRFKNDQVNYSLNTDDPLIFKSTLDTDYQMTKNEMGFTEEEFKRLNINAAKSSFLPEDEKKELLDLLYKAYGMPSPASAEQCL
modifications: PEGylated
hypoxia-mediated induction of 2,3-DPG (RBCs from SCD patients): reduced
2,3-DPG elevation by hypoxia/reoxygenation (SCD Tg mice; SCD Tg mice RBCs, PEG-ADA pretreatment): significantly inhibited its elevation
plasma adenosine levels (SCD Tg mice; [1]): significantly lowered
plasma hemoglobin (SCD Tg mice; [1]): decreased
plasma total bilirubin (SCD Tg mice; [1]): decreased
sickling (SCD Tg mice; [1]): reduced
HCT (SCD Tg mice; [2]): 21.25 ± 2.52 %
Hb (SCD Tg mice; [2]): 4.58 ± 0.38 g/dL
MCH (SCD Tg mice; [2]): 9.12 ± 0.72 pg
MCHC (SCD Tg mice; [2]): 18.65 ± 1.82 g/dL
MCV (SCD Tg mice; [2]): 48.93 ± 2.05 fL
RBC (SCD Tg mice; [2]): 4.94 ± 0.17 M/μl
RDW (SCD Tg mice; [2]): 29.72 ± 1.95 %
WBC (SCD Tg mice; [2]): 18.68 ± 3.32 k/μl
